Assay [1] deals with binding of FAM19A5 protein to full-length ectodomain of the LRRC4B protein (amino acids 36-576 of SEQ ID NO: 2) (Homo sapiens, UniProt Q7Z5A7). Briefly: Competitive inhibition assay, plate coated with full-length ectodomain of LRRC4B (amino acids 36-576). The note with it: for inhibition of interaction between FAM19A5 and the coated LRRC4B protein fragments (in words): statement covers both coats, LRRC4B (36-576) and LRRC4B (453-576). As for the experimental part:
Next, to further assess the role that the binding domain of the LRRC4B protein has on the interaction between FAM19A5 protein and members of the LRRC4 protein family, a competitive inhibition assay was used to determine whether different LRRC4B deletion constructs from Example 2 could inhibit the binding of FAM19A5 to the full-length ectodomain of the LRRC4B protein (i.e., amino acids 36-576 of SEQ ID NO: 2; SEQ ID NO: 5). Briefly, 100 nM of the full-length ectodomain of the LRRC4B protein was used to coat a plate, and then recombinant FAM19A5 protein (5 ng/mL) was added to the plate in combination with the following LRRC4B deletion constructs (increasing concentrations): (1) LRRC4B (453-576) (i.e., construct #11 in Table 6); (2) LRRC4B (453-576) mutant (comprises alanine substitutions at positions 488 and 489 of SEQ ID NO: 2; SEQ ID NO: 16); (3) LRRC4B (484-576) (i.e., construct #12 in Table 6); (4) LRRC4B (482-576); (5) LRRC4B (482-497); and (6) LRRC4B (498-576). The plates were incubated at 37° C., and then, the amount of FAM19A5 bound to the coated LRRC4B ectodomain protein was measured using HRP-conjugated anti-FAM19A5 (1-65) antibody.
As described in Example 3, there appeared to be much similarity in the binding domains of the different members of the LRRC4 family. […] Then, recombinant FAM19A5 protein (5 ng/mL) was added in combination with one of the following: (i) LRRC4B (484-576) protein fragment, (ii) LRRC4B (453-576, AA) protein fragment, and (iii) synthetic FB-20 peptide. The plates were incubated at 37° C., and then, the amount of FAM19A5 protein bound to the coated LRRC4, LRRC4B, or LRRC4C proteins was measured using anti-FAM19A5 (1-65) antibody.
(§1) Next, to assess whether polypeptides comprising the binding domains of LRRC4 or LRRC4C proteins can have similar inhibitory effects on LRRC4B protein binding, the following synthetic peptides were constructed: (1) FBC4-23 (contains the binding domain of the LRRC4 protein, i.e., YSFFTTVTVETTE); and (2) FBC4C-23 (contains the binding domain of the LRRC4C protein, i.e., FSYFSTVTVETME). Then, the ability of the peptides to inhibit the binding of LRRC4 protein family members to FAM19A5 protein was assessed using a competitive inhibition assay. Briefly, plates were coated with 100 nM of either LRRC4B protein fragment #1 (amino acids 36-576 of SEQ ID NO: 2; SEQ ID NO: 5) or LRRC4B protein fragment #2 (amino acids 453-576 of SEQ ID NO: 2; SEQ ID NO: 7). Then, recombinant FAM19A5 protein (5 ng/ml for plates coated with LRRC4B fragment #1; and 1 ng/mL for plates coated with LRRC4B fragment #2) was added to the plates in combination with 20 nM of the FBC4-23, FBC4C-23, and FB-20 peptides. The plates were incubated at 37° C. and then, the amount of FAM19A5 protein bound to the coated LRRC4B protein fragments was assessed using HRP-conjugated anti-FAM19A5 (1-65) antibody.
Next, to determine the minimal sequence required to inhibit the interaction of FAM19A5 and members of the LRRC4 protein family, ten FB-20 peptide variants were constructed by serially deleting one or more amino acids from the N-terminus or C-terminus of the FB-20 peptide. Then, a competitive inhibition assay was used to assess the ability of the different FB-20 peptide variants to inhibit the interaction between FAM19A5 and LRRC4B protein. Again, plates were coated with 100 nM of either LRRC4B protein fragment #1 (amino acids 36-576 of SEQ ID NO: 2; SEQ ID NO: 5) or LRRC4B protein fragment #2 (amino acids 453-576 of SEQ ID NO: 2; SEQ ID NO: 7). Then, recombinant FAM19A5 protein (5 ng/ml for plates coated with LRRC4B fragment #1; and 1 ng/mL for plates coated with LRRC4B fragment #2) was added to the plates in combination with 20 nM of the different peptides described above. After incubating the plates at 37° C., the amount of FAM19A5 protein bound to the coated LRRC4B protein fragments was assessed using HRP-conjugated anti-FAM19A5 (1-65) antibody. […]

Assay [2] addresses binding of FAM19A5 protein to LRRC4B (amino acids 453-576)-hFc (Homo sapiens, UniProt Q7Z5A7). Briefly: Competitive inhibition assay, plate coated with LRRC4B (amino acids 453-576)-hFc, peptides at 20 nM.
Description: as §1
Next, to determine the minimal sequence required to inhibit the interaction of FAM19A5 and members of the LRRC4 protein family, ten FB-20 peptide variants were constructed by serially deleting one or more amino acids from the N-terminus or C-terminus of the FB-20 peptide. Then, a competitive inhibition assay was used to assess the ability of the different FB-20 peptide variants to inhibit the interaction between FAM19A5 and LRRC4B protein. Again, plates were coated with 100 nM of either LRRC4B protein fragment #1 (amino acids 36-576 of SEQ ID NO: 2; SEQ ID NO: 5) or LRRC4B protein fragment #2 (amino acids 453-576 of SEQ ID NO: 2; SEQ ID NO: 7). Then, recombinant FAM19A5 protein (5 ng/ml for plates coated with LRRC4B fragment #1; and 1 ng/mL for plates coated with LRRC4B fragment #2) was added to the plates in combination with 20 nM of the different peptides described above. After incubating the plates at 37° C., the amount of FAM19A5 protein bound to the coated LRRC4B protein fragments was assessed using HRP-conjugated anti-FAM19A5 (1-65) antibody.
To identify the critical amino acid residues, multiple FB-20 peptide mutants were constructed, in which the individual residues of the core binding domain (i.e., YTYFTTVTVETLE; SEQ ID NO: 15) were substituted with alanine (A) or asparagine (N). Then, the ability of these FB-20 peptide mutants to inhibit the interaction between LRRC4B and FAM19A5 proteins was assessed, as described in Examples 3 and 4.

For assay [3], the target named is T1, FAM19A5 protein (Homo sapiens, UniProt Q7Z5A7). Put plainly: competitive inhibition ELISA; competitor: coated LRRC4B(36-576)-hFc. (In general: ELISA stands for enzyme-linked immunosorbent assay.)
The target of assay [4] is T1, FAM19A5 protein. Put plainly: competitive inhibition ELISA; competitor: coated LRRC4B(453-576)-hFc.
[5] abbreviates: Table 9, deletion variants, 20 nM peptide, FAM19A5 5 ng/ml.
[6] abbreviates: Table 9, deletion variants, 20 nM peptide, FAM19A5 1 ng/mL.
Where [7] appears, read: Table 10, alanine/asparagine mutants.

Chain of binding of FAM19A5 protein to full-length ectodomain of the LRRC4B protein (amino acids 36-576 of SEQ ID NO: 2) (Q7Z5A7 44-132): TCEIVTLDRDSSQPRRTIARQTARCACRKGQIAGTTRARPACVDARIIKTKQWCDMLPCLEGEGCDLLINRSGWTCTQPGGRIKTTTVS
Chain of binding of FAM19A5 protein to LRRC4B (amino acids 453-576)-hFc (Q7Z5A7 44-132): as above

In the case of KNTYFTTVTVETNKETQ [FB-m10dN], the “inhibition of interaction between FAM19A5 and the coated LRRC4B protein fragments (in words)” value (“inhibition … (in words)” below) in assay [1] (20 nM peptide) is on record as “failed to significantly inhibit”. For the same molecule, the “Inhibition rate (%) LRRC4B (amino acids 36-576)-hFc” value in assay [1] (setting [5]) is listed as 7.7%. Besides, in assay [2] (setting [6]), the “Inhibition rate (%) LRRC4B (amino acids 453-576)-hFc” value is given as 0.0%.
GYTAFTTVTVETLETQPGEE [FB-20[A3]]: the “Inhibition rate (%) LRRC4B (amino acids 36-576)-hFc” value in assay [1] (setting [7]) was determined as 5.9%. Further, the “Inhibition rate (%) LRRC4B (amino acids 453-576)-hFc” value in assay [2] (setting [7]) was 0.0%.
Take GYTYFTTVTVNTLETQPGEE [FB-20[N10]]: in assay [1] (setting [7]), the “Inhibition rate (%) LRRC4B (amino acids 36-576)-hFc” value was found to be 27.0%. For the same molecule, in assay [2] (setting [7]), the “Inhibition rate (%) LRRC4B (amino acids 453-576)-hFc” value was 10.8%.
On to GYTYFTTVTVATLETQPGEE [FB-20[A10]], for which the “Inhibition rate (%) LRRC4B (amino acids 36-576)-hFc” value in assay [1] (setting [7]) is reported as 19.6%. Further, the “Inhibition rate (%) LRRC4B (amino acids 453-576)-hFc” value in assay [2] (setting [7]) came out at 6.4%.
For GYTYFTTVTVEALETQPGEE [FB-20[A11]] the same measures were 73.4% and 50.3%.
For GYTYFTNVTVETLETQPGEE [FB-20[N6]] the same measures were −11.4% and −0.4%.
The matching figures for GYTYFTTVTNETLETQPGEE [FB-20[N9]]: 17.5% and 6.5%.
As to KNYTYFTTNKETQ [FB-m6dC], the “inhibition … (in words)” value in assay [1] (20 nM peptide) was “failed to significantly inhibit”. Besides, the “Inhibition rate (%) LRRC4B (amino acids 36-576)-hFc” value in assay [1] (setting [5]) is given as 14.9%. In assay [2] (setting [6]), the “Inhibition rate (%) LRRC4B (amino acids 453-576)-hFc” value is 5.5%.
Turning to GYTYFTTVTVETLATQPGEE [FB-20[A13]], the “Inhibition rate (%) LRRC4B (amino acids 36-576)-hFc” value in assay [1] (setting [7]) was 51.4%. Further, the “Inhibition rate (%) LRRC4B (amino acids 453-576)-hFc” value in assay [2] (setting [7]) is given as 27.2%.
The matching figures for GYTYFTTATVETLETQPGEE [FB-20[A7]]: 26.8% and 7.9%.
The matching figures for GYTYFTTVNVETLETQPGEE [FB-20[N8]]: 2.9% and −2.4%.
Take KNYTYFTTVTNKETQ [FB-m8dC]: in assay [1] (20 nM peptide), the “inhibition … (in words)” value is “failed to significantly inhibit”. Besides, the “Inhibition rate (%) LRRC4B (amino acids 36-576)-hFc” value in assay [1] (setting [5]) amounted to 5.1%. In assay [2] (setting [6]), the “Inhibition rate (%) LRRC4B (amino acids 453-576)-hFc” value is recorded as −0.9%.
For the molecule GATYFTTVTVETLETQPGEE [FB-20[A1]], in assay [1] (setting [7]), the “Inhibition rate (%) LRRC4B (amino acids 36-576)-hFc” value turned out to be 17.2%. Moreover, the “Inhibition rate (%) LRRC4B (amino acids 453-576)-hFc” value in assay [2] (setting [7]) turned out to be 3.6%.
Consider GATYFTTVTVETLETQPGEE [FB-20[A1]], for which the Inhibition rate (%) in the assay with FAM19A5 protein [3] came to 17.2%; with FAM19A5 protein [4], 3.6%.
As to GYTYFTTVTVNTLETQPGEE [FB-20[N10]], the Inhibition rate (%) with FAM19A5 protein [3] was 27%; with FAM19A5 protein [4], 10.8%.
The matching figures for GYTYFTTVTVENLETQPGEE [FB-20[N11]]: 74.1% and 55.6%.
The matching figures for GYNYFTTVTVETLETQPGEE [FB-20[N2]]: -0.7% and -2%.
Consider GYTYFTTVTNETLETQPGEE [FB-20[N9]], for which the Inhibition rate (%) with FAM19A5 protein [3] came out at 17.5%; in the assay with FAM19A5 protein [4] it was 6.5%.
The matching figures for GYAYFTTVTVETLETQPGEE [FB-20[A2]]: 1% and -0.4%.
For GNTYFTTVTVETLETQPGEE [FB-20[N1]] the same measures were 11.9% and 3.1%.
For GYTAFTTVTVETLETQPGEE [FB-20[A3]] the same measures were 5.9% and 0%.
Take GYTNFTTVTVETLETQPGEE [FB-20[N3]]: the Inhibition rate (%) with FAM19A5 protein [3] was -5%; with FAM19A5 protein [4] it was 4%.
For GYTYFTTNTVETLETQPGEE [FB-20[N7]] the same measures were 24.5% and 8.3%.
For GYTYFTNVTVETLETQPGEE [FB-20[N6]] the same measures were -11.4% and -0.4%.
For GYTYNTTVTVETLETQPGEE [FB-20[N4]] the same measures were -1.3% and 2.5%.
For the molecule GYTYFTTVNVETLETQPGEE [FB-20[N8]], the Inhibition rate (%) with FAM19A5 protein [3] is 2.9%; in the assay with FAM19A5 protein [4] it was -2.4%.
Regarding GYTYFNTVTVETLETQPGEE [FB-20[N5]], the Inhibition rate (%) came out at 56.1% in the assay with FAM19A5 protein [3] and 30.5% with FAM19A5 protein [4].

The values are drawn from patent US20240238445A1, “INHIBITORS AND USES THEREOF” (NEURACLE SCIENCE CO., LTD., priority 2021, published 2024).
